Measured values reported in patent US20240209100A1 (DIAGONAL THERAPEUTICS, published 2024).

T1: IL-18 receptor (IL-18Rα/IL-18Rβ) overexpressed on HEK-Blue IL-18 cells (Homo sapiens (Human), UniProt Q13478 19-541; O95256 20-599)
T1 sequence 1: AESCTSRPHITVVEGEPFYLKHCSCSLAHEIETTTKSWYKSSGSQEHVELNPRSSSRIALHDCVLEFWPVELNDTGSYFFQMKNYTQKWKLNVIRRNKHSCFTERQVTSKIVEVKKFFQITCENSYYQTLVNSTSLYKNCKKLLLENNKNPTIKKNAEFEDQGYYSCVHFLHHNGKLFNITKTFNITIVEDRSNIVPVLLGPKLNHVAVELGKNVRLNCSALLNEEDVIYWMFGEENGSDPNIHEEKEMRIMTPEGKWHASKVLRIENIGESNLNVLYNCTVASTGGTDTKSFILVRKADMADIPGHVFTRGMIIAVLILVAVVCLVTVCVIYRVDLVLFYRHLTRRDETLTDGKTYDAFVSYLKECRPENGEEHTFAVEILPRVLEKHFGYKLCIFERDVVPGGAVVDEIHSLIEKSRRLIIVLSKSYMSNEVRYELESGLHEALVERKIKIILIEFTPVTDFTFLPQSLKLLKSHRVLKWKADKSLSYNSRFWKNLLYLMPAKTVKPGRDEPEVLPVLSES
T1 sequence 2: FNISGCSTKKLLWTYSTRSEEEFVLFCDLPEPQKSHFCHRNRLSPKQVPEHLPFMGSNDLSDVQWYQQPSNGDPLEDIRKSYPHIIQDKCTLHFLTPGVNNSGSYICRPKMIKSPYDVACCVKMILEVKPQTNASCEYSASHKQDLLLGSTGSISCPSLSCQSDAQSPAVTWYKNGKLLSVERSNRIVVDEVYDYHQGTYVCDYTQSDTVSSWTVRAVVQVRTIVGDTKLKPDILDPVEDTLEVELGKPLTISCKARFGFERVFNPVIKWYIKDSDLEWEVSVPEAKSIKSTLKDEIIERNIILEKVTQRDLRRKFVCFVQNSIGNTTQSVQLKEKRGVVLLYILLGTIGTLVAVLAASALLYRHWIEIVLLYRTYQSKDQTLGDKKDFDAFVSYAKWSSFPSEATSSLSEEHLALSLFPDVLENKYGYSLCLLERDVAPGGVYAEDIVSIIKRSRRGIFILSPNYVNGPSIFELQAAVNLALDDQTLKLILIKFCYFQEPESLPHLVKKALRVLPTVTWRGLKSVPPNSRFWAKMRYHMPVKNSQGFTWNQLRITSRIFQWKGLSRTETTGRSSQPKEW

T2: IL-18 receptor (IL-18Rα/IL-18Rβ) on human PBMCs (human, UniProt Q13478 19-541; O95256 20-599)
T2 sequence 1: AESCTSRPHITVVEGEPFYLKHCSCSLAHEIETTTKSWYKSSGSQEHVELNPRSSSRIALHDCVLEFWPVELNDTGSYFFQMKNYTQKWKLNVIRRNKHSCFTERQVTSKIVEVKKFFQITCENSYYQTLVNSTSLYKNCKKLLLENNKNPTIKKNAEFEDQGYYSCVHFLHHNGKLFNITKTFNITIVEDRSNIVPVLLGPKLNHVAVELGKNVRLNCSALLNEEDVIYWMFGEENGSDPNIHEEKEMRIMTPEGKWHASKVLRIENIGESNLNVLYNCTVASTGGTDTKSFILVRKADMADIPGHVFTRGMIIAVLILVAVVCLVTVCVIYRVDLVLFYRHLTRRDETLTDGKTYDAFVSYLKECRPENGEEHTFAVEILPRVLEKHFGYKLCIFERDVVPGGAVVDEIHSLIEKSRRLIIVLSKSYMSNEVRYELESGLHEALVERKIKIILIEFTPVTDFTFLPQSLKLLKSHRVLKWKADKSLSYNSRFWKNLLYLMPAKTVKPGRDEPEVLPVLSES
T2 sequence 2: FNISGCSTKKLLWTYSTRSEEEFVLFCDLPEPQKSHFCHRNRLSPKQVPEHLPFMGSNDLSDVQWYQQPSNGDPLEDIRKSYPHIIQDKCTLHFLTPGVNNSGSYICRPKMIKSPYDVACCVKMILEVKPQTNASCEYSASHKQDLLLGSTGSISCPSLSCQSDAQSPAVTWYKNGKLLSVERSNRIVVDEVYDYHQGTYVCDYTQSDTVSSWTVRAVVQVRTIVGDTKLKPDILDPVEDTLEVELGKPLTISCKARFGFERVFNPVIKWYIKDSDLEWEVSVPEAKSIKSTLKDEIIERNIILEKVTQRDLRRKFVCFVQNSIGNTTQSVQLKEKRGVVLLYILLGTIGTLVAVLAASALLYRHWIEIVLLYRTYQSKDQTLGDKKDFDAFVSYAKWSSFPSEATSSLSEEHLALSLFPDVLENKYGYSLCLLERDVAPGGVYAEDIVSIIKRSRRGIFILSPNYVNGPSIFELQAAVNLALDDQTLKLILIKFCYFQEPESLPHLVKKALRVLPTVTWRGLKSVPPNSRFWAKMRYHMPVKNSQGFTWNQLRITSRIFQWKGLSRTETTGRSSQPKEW

T3: human IL-18Rα (human, UniProt Q13478 19-329, limits assumed)
T3 construct: Monomeric antigen injected in SPR; also called huIL18Ra; IL-18R alpha
T3 sequence: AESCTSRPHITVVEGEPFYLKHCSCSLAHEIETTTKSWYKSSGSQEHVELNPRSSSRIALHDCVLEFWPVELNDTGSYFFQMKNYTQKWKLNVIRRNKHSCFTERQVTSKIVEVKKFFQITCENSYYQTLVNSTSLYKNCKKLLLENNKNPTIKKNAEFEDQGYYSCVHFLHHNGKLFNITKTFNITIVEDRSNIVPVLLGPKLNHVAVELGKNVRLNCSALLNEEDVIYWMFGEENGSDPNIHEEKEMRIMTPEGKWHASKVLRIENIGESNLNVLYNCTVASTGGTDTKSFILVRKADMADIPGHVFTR

T4: human IL-18Rβ (human, UniProt O95256 20-356, limits assumed)
T4 construct: Monomeric antigen injected in SPR; also called IL-18R beta; IL-18Rb
T4 sequence: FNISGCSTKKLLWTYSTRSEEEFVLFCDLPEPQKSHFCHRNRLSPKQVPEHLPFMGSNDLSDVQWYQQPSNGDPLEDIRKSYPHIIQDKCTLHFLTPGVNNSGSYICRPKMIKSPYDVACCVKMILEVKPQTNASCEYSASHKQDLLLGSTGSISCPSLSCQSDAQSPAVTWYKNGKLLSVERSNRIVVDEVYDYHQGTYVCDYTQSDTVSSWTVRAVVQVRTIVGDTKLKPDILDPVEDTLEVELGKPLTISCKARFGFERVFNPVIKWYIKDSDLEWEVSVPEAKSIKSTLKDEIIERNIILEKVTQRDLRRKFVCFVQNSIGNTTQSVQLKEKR

T5: cynomolgus IL-18Rα (cynomolgus, UniProt A0A2K5V3J9 19-328)
T5 construct: also called Cyno IL-18Rα; non-human primate IL-18Rα
T5 sequence: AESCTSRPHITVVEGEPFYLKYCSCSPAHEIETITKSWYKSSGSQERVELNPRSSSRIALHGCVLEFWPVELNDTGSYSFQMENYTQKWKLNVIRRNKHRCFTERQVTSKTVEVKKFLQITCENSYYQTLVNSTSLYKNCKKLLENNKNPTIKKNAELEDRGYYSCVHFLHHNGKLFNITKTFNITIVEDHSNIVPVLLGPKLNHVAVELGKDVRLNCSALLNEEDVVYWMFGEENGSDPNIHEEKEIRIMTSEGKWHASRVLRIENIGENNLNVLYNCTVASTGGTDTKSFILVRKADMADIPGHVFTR

T6: rhesus IL-18Rβ (rhesus, UniProt F7HHC1 20-356)
T6 construct: also called non-human primate IL-18Rβ
T6 sequence: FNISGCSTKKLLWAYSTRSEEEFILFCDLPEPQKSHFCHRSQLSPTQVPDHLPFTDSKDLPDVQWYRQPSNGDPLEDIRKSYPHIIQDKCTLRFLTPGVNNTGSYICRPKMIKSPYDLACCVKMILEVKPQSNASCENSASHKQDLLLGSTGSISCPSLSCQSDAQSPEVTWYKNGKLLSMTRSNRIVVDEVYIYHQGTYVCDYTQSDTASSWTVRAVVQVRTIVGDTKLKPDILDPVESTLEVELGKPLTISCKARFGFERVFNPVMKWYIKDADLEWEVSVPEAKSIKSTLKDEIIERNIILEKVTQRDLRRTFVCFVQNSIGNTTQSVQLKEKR


How the values were obtained:
[1] = target: T1, IL-18 receptor (IL-18Rα/IL-18Rβ) …; assay: cell-based or functional assay
[2] = target: T2, IL-18 receptor (IL-18Rα/IL-18Rβ) on …; assay: cell-based or functional assay
[3] = target: T3, human IL-18Rα; assay: SPR (Carterra LSA), antibody captured on anti-human IgG-Fc, monomeric antigen as analyte, 25 C
Experimental: (§1) SPR experiments were performed using Carterra LSA equipped with an HC30M chip (Carterra-Bio). Binding assays were carried out at 25° C. with HBSTE (10 mM HEPES ph7.4, 150 mM NaCl, 3 mM EDTA, 0.05% Tween-20) with 0.5 g/L BSA. A density of anti-human IgG-Fc capture lawn was established on an HC30M chip using amine coupling. […] Coupling of goat anti-human IgG (H+L) multi-species SP ads-UNLB (Southern Biotech, 2087-01) with standard immobilization was done for 15 minutes in 10 mM sodium acetate pH 4.5 and quenched using 1M ethanolamine HCl PH8.5. The anti-human IgG-Fc capture surface was then used to capture a panel of antibodies at 20 μg/mL. Monomeric antigen for human IL-18Rα, human IL-18Rβ, cynomolgus IL-18Rα, or rhesus IL-18Rβ targeted by the antibodies was injected over the captured antibody array at 6 concentrations in 4-fold dilution series starting at 500 nM. Binding data was referenced and blanked from a buffer injected, then globally fit to a 1:1 Langmuir binding model for estimation of ka, kd, and KD using Carterra Kinetics Software.

[4] = target: T4, human IL-18Rβ; assay: as above
Experimental: as §1

[5] = target: T5, cynomolgus IL-18Rα; assay: as above
Experimental: as §1

[6] = target: T6, rhesus IL-18Rβ; assay: as above
Experimental: as §1

HEK-Blue IL-18: Abs 405 at 100 nM [1] [Abs]	HEK-Blue IL-18: Fold over Background [1] [fold]	PBMC: calculated maximum induction of IFNγ after 24 hours, donor 1 [2]	PBMC: calculated maximum induction of IFNγ after 24 hours, donor 2 [2]	PBMC: calculated maximum induction of IFNγ after 24 hours, donor 3 [2]	PBMC: calculated maximum induction of IFNγ after 24 hours, donor 4 [2]	PBMC: calculated maximum induction of IFNγ after 24 hours, donor 5 [2]	PBMC: calculated maximum induction of IFNγ after 24 hours, donor 6 [2]	Kd [3] [nM]	Kd [4] [nM]	Kd [5] [nM]	Kd [6] [nM]	Binder
0.9	4.9	13000	620	17000	9300	1500	1300	11	3.2	14	15	DGL336 (bispecific antibody, V domains shown, humanized VHH-Fc heterodimer) V domain 1: EVQLLESGGGLVQPGGSLRLSCAASGRTFSKHAMGWFRQAPGKGLEFVSAIDWSGGSTYYADSVKGRFTISRDNSKNTVYLQMNSLRAEDTAVYYCAADSYTDYAQLWLPELESEYDYWGQGTLVTVSS V domain 2: EVQLVESGGGLIQPGGSLRLSCAASGSISSRDTMGWYRQAPGKGREMVSVISSSGNTNYADSVLGRFTISRDNAKNTVYLQMNALRAEDTAVYKCYAHRTYGVDYWGQGTLVTVSS
1.34	7.2	16000	1700	22000	17000	15000	3000	60	2.2	900	10	DGL346 (bispecific antibody, humanized) heavy 1: EVQLVESGGGLIQPGGSLRLSCAASGSISSRDTMGWYRQAPGKGREMVSVISSSGNTNYADSVLGRFTISRDNAKNTVYLQMNALRAEDTAVYKCYAHRTYGVDYWGQGTLVTVSSGGGSQVQLVESGGGLVQPGGSLRLSCAASGRTFSSYTMGWFRQAPGKGREFVSAISWSAGRTYYADSVKGRFTISRDNAKNTVYLQMNALRAEDTAVYYCAAEEAPDWAPIDCSGYGCLSLYDYWGQGTLVTVSDKTHTCPPCPAPEAAGAPSVFLFPPKPKDTLYITREPEVTCVVVDVSHEDPEVKFNWYVDGVEVHNAKTKPREEQYNSTYRVVSVLTVLHQDWLNGKEYKCKVSNKALPAPIEKTISKAKGQPREPQVCTLPPSRDELTKNQVSLSCAVKGFYPSDIAVEWESNGQPENNYKTTPPVLDSDGSFFLVSKLTVDKSRWQQGNVFSCSVMHEALHNHYTQKSLSLSPG heavy 2: DKTHTCPPCPAPEAAGAPSVFLFPPKPKDTLYITREPEVTCVVVDVSHEDPEVKFNWYVDGVEVHNAKTKPREEQYNSTYRVVSVLTVLHQDWLNGKEYKCKVSNKALPAPIEKTISKAKGQPREPQVYTLPPCRDELTKNQVSLWCLVKGFYPSDIAVEWESNGQPENNYKTTPPVLDSDGSFFLYSKLTVDKSRWQQGNVFSCSVMHEALHNHYTQKSLSLSPG
